Results reported in PMC3097263.

Target: MqsA (UniProt Q46864 1-131)
Test: EMSA

MqsA, sequence (Q46864 whole entry): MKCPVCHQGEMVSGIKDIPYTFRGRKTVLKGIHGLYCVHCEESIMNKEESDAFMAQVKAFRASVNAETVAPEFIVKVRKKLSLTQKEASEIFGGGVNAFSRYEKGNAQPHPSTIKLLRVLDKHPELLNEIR

B1: PrpoS 25-mer (dsDNA)
DNA 1: TGGTCAGACCTTGCAGGTGGGTAAT
DNA 2: ATTACCCACCTGCAAGGTCTGACCA
  binding result: binds
